The target of data set [1] is Cep63 (424–541)•Cep152 (1205–1295) heterotetrameric complex (human) (UniProt O94986). The experiment in a line: AUC; sedimentation equilibrium, 4 °C, pH 5.5 (150 mM NaCl, 50 mM citric acid/sodium citrate, 1 mM TCEP, 5% glycerol); 12.6, 25 and 55 µM fitted globally; reversible tetramer–octamer–hexadecamer model (heterotetramer to octamer, octamer to hexadecamer).
Data set [2] deals with T1, Cep152 (1205–1295) (human, UniProt O94986-3 1205-1295).
T1 chain: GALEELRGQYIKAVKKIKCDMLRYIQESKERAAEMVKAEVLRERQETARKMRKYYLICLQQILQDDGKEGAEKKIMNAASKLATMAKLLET
The experiment in a line: heterotetramer formation (2:2), iSCAMS; printed as <~60 nM.

Data set [3] addresses His-Cep63 (424–541) (human). The experiment in a line: AUC; sedimentation velocity, 50,000 rpm, 4 °C, 150 mM NaCl, 20 mM Tris pH 8.0, 0.5 mM TCEP, 5% glycerol.
Data set [4] concerns the molecule itself. The experiment in a line: SEC-MALS; Cep63 (440–490), Wyatt SEC-MALS system.
Data set [5] deals with the molecule itself. The experiment in a line: SEC; SEC elution of Cep63 (440–490) triple mutants (Supplementary Fig. 3d). For orientation: In gel filtration, larger molecules generally elute earlier.

In data set [1], “Cep63 (424–541)•Cep152 (1205–1295) heterotetrameric complex (from UniProt O94986-3 1205-1295)” yielded a Kd, octamer–octamer interaction (octamer–hexadecamer step) of 2200 nM; a Kd, tetramer–tetramer interaction (tetramer–octamer step) of 370000 nM; a k16 (dissociation constant of the hexadecamer into four tetramers, c4^4/c16) of 3e-13 M^3; a stoichiometry N (heterotetramers in the oligomer) of 4.

B1: His-Cep63 (424–541) (domain or fragment)
chain: LHQRDITIASTKGSSSDMEKRLRAEMQKAEDKAVEHKEILDQLESLKLENRHLSEMVMKLELGLHECSLPVSPLGSIATRFLEEEELRSHHILERLDAHIEELKRESEKTVRQFTALK
With B1, the Kd (commonly the free concentration of one partner at which half of the binding sites on the other are occupied at equilibrium, for simple one-to-one binding) in data set [2] is less than 60 nM.

B2: Cep152 (1205–1295) (domain or fragment)
chain: GALEELRGQYIKAVKKIKCDMLRYIQESKERAAEMVKAEVLRERQETARKMRKYYLICLQQILQDDGKEGAEKKIMNAASKLATMAKLLET
Regarding B2, the stoichiometry N (Cep63:Cep152 ratio (2:2)) in data set [3] stood at 1.

B3: Cep63 (440–490) (domain or fragment, human, UniProt Q96MT8 440-490, looked up)
chain: DMEKRLRAEMQKAEDKAVEHKEILDQLESLKLENRHLSEMVMKLELGLHEA
notes: Cep63, human, residues 440–490; The structure was phased by SAD; also called Cep63 (440–490) WT; Cep63 (440–490) dimer; source: E. coli BL21(DE3) RIL, purified (Ni-NTA, TEV digestion, Sephacryl S-100 HR SEC); selenomethionine-substituted protein from E. coli B834(DE3); not shown: (His)6, N-terminal, cleaved; MBP, N-terminal, cleaved
Consider B3, for which the stoichiometry N (as a rule, a count of units in the complex or per binding partner) in data set [4] was found to be 2.

B4: Cep63 (440–490) (L445A, A456K, L463K) (domain or fragment, human, UniProt Q96MT8 440-490, looked up)
chain: DMEKRARAEMQKAEDKKVEHKEIKDQLESLKLENRHLSEMVMKLELGLHEA
notes: Cep63, human, residues 440–490 with L445A, A456K, L463K; also called AKK; pKM6657; source: E. coli BL21(DE3) RIL, purified (Ni-NTA, TEV digestion, Sephacryl S-100 HR SEC); not shown: (His)6, N-terminal, cleaved; MBP, N-terminal, cleaved
B4: the binding result in data set [5] is recorded as “binds”.

For the origin of these results see paper PMC10336005, “Architectural basis for cylindrical self-assembly governing Plk4-mediated centriole duplication in human cells” (Communications Biology, 2023).
